Data from the DeepSol protein solubility set.

test: soluble on expression in E. coli; label from the status in PepcDB or PDB records

| Sequence | soluble on expression in E. coli |
| --- | --- |
| MSLTPTVMVVDESRITFLAVKNALEKDGFNVIWAKNEQEAFTFLRREKIDLVFVDVFEGEESLNLIRRIREEFPDTKVAVLSAYVDKDLIINSVKAGAVDYILKPFRLDYLLERVKKIISSTPRVTVSLRKNIEDLEITLKFEDIVRKEIKRSNRTGSRFCVMYVKFEDIMRDYETIKKFFRETDYVLPISASEYLFVLTLTGKHGIEAVTRRMKEKLSERFSYTYVCYPDDGKTYEEIILTLKDRMAKPRGEGHHHHHH | soluble |
| MSLTQHTRNFSFKVLTINTHKGFTAFNKRFILPELRDAVRTVGADIVCLQEVMGAHEVHPLHIENWPDTTHYEFLADTMWSDFAYGRNAVYPEGHHGNAVLSRYPIEHYENRDVSVGGSEKRGVLYCRITPPMLNRPIHVMCVHLGLRESHRQAQLTMLAGWVNALPESEPVLVAGDFNDWRQKAGPPLNAAGLEEIFTRAHGRPARTFPVSMPLLRLDRIYVKNANASSPTALPLRNWRHLSDHAPLSAEIHLEGHHHHHH | soluble |
| MSLTQIFAHRGSKVDCPENTLAAFKKAIQVGCDGIEIDVHRTKDNQLVVIHDEAVDRTSNGSGLVRQLTLKQIRMLDAGSWFHPAYFCEKIPTLEEVLNFLEESGFQGTLNLEIKTNRYPYPKIEKQIAQTMQAKKRSFSHIYSSFNLFSLYVMRKHDPKAELAYLMKFHPFHFWLAQQLKFIKTVHSHSSFYENQVTKRKNKKPFRLWTVNNDDDMKKFFLSGIEGIITDKPEEAVKLRKSLQTKEGHHHHHH | not soluble |
| MSLTQVHFTLKSEEIQSIIEYSVKDDVSKNILTTVFNQLMENQRTEYIQAKEYERTENRQSQRNGYYERSFTTRVGTLELKVPRTRDGHFSPTVFERYQRNEKALMASMLEMYVSGVSTRKVSKIVEELCGKSVSKSFVSSLTEQLEPMVNEWQNRLLSEKNYPYLMTDVLYIKVREENRVLSKSCHIAIGITKDGDREIIGFMIQSGESEETWTTFFEYLKERGLQGTELVISDAHKGLVSAIRKSFTNVSWQRCQVHFLRNIFTTIPKKNSKSFREAVKGIFKFTDINLAREAKNRLIHDYIDQPKYSKACASLDDGFEDAFQYTVQGNSHNRLKSTNLIERLNQEVRRREKIIRIFPNQTSANRLIGAVLMDLHDEWIYSSRKYINFDKEGHHHHHH | soluble |
| MSLTSPSELRSGKTHRDENFPVASWIIHPRHRDLILAFYNFVRTADDIADHEMLDGDTKLEYLDLLEAELLGRGETQPEAVHLRRALAERGMPPRHALDLLTAFRMDVTKLRYEDWDEVIHYCRYSAMPVGRFMLDVHGESTTTWQASDALCAGLQINNHLQDCGKDYRTLNRVYLPRDVLDAAGAKVEDLGLQKSSPALLKCLQGLAVRTASLLGDGRPLAAEIKDYRLGLEVSVIQAYADRIVRMLQTRDPLSERVHLKPIEFVIASFGAMSSEIVRRSEGHHHHHH | soluble |
| MSLTTATTSQTALRSRKDVPLSDCWDTKSLYASREVWQDELKKVGAEGAPFWPHLSENNFDIKQPSSLRELLTTVFSIERTLDKLYVYAHLTYDEDIANQEAAADLKSITFLLTSFVEEISWIQPALIALPQQVVNMLLASPELQEYHFYLKKLFRLAPHTGTSREEKILASSFPALEVAYKTFSSLTDSEIPFGEAVDSEGKSHPLSHALASLYMQSTDRELRKNTYQKQCQRHHGYRLSLANLLNGKIQAHLFNAKARDYDSCLEAALFQNDISTSVVTTLIDTVKQHTHLITEYFQLKQKALGLSDFHFYDVYAPLVASEASRHYSYQEAVTLICDSLSLLGNDYVETLRKGLTSDGWVDKYENTNKRSGAYSSGCYDSKPYILLNYTGTLYDVSVVAHEGGHSMHSFLSHKHQSYHEAQYPIFLAEIASTLNETLLMEFLLKQAPSKEEKIAILSRSLDTVFATLFRQTLFAAFELEMHSAAEQGLPLTEEFFSQSYEKLQRLFYGDCITFDEHSCIEWARIPHFYYNFYVYQYATGIIASLCFSERILSGEEGAQEAYLTFLRSGGSDFPIEILKKSGLDMTSSAPMLKAFSYIERKLEELASLLEGHHHHHH | soluble |
| MSLTTILDIAKLAGVAKSTVSRYLNGGSVSEPTRQKIERVIKETGYIPNAFAQSLKAKQTNFIGTIVPRLDSFAASRTVMGIDDELKSLGYQMLMSNTDQSVEREIETIYNLANQKIAGVILLATVITKEHLNAFREVGIPTLLVGQEHTEVPCLIHDDFKAGYEMGKHVLSKGHKRIAYLGVGEHDIAVGVKRKEGFKQAMAEHGPCEVAYFETSFSMQDSFRVSPKMIETYQPSALVCATDNIALGALKGAYSIGMNVPKDLSITGFGGYEVTGIIHPSLTTVNFHFKAAGKMAARKMIKLMNGEEVNHLTRMDVELIERESVDNEGHHHHHH | soluble |
| MSLTTIPIWDVQQTPELNISAADYSLLTDLYQLTMAACYTGEGVEQRRASFELFVRRSPEGFGYLIAMGLAQALEYLEKLRFSPEQIAALQATGIFAHAGEGFWSLLAEGRFTGDVWAVPEGTAVFANEPLLRVEAPLWQAQLVETYLLNTLNYQTLVATRAARLRDIAGEQATLLEFGTRRAFSPQASLWAARAALAGGLDATSNVLAALQLGQQPSGTMAHALVMALSAMEGSEEQAFSAFHRYFPGAPLLIDTYDTIAAAQHLAEKVNTGKMELSGVRLDSGDLVSLSKQVRSLLPDVSIFASGDLDEWEIAKLQAAGAEIDGYGLGTKLVTGSPVNGVYKLVEIDDIPVMKKSSGKTTYPGRKQIFRSFGDGQVQADRLGLITDTPLITEKPLLELVVKEGQRLQPRETLSAIRQRTAASVASLPEQTRRLDNPVPVPIQISTALQDLTEVTLQRLNEGHHHHHH | not soluble |
| MSLTTLNIGLILPDVLGTYGDDGNALVLRQRARMRGINAEIQRVTLDDAVPSTLDLYCLGGGEDTAQILATEHLTKDGGLQTAAAAGRPIFAVCAGLQVLGDSFRAAGRVIDGLGLIDATTVSLQKRAIGEVETTPTRAGFTAELTERLTGFENHMGATLLGPDAEPLGRVVRGEGNTDVWAASENTDDQRQQFAEGAVQGSIIATYMHGPALARNPQLADLMLAKAMGVALKEGHHHHHH | not soluble |
| MSLTTSIPAPPAESIDQVLNLISKGSNGAAQQSKHPLRIVMGSVMISEIGALISGVLKSLNNNFTTQKVWEEDYLVRVMAHLGLFAHAVGSQVSANDLTQLLTLYVQRLSARGFTDLVPLYLSFIPDDSDAREYYSKFLSSITDPSERTKQLQLVRKLGIDSNGDEERMANVLRRTVERVMADTEAEYRPSGEVTVQDEDTDVTETDTKICQSVDWYFENNMYPDAVSASLTVIRRFLACGRLAALRHFVRGKDLKQLVKNYDVDLYTRSLAGLDDGAQVGDADKDEIIQYHLFVQGLELIQDWRKFLKDNQTNSLSAVFWKSKHLESLIEKVSSGIVGLIRDWFQELIATDGTKKEMYQQLRVLYVPYLVMELLDIYQQARMSNWLYVKKAFELVSLVADEDNNDLLTCFVNCGRLDELMVRSGNLAAVACERGIANIFSEGHHHHHH | soluble |
| MSLTTSKTRKSGVAMTEKLELDPARTAIVLIEYQNEFTSDGGVLHGAVADVMQHTGMLANTVAVVDAARQAGVPIMHAPITFAEGYGELTRHPYGILKGVVDGKAFVKGTWGAAIVDELAPVNGDIVIEGKRGLDTFASTNLDFILRSKGVDTIVLGGFLTNCCVESTMRTGYERGFRVITLTDCVAATSQEEHNNAISYDFPMFSVPMTSADVIAALEGHHHHHH | soluble |
| MSLTVLPVPDLLARALDRRAGLPGAGTTFFRAVHITETGGLWTLDVAGDAGILSLYTDLSAEAERDLAAQCGEAAGLSSVYLKRRPPEAKHLANVAREVLSPPDPLWGTARPEVTALEEGVPFLIRPGADLSVGLFSDARPARRWVRGHAAGQRVLNTFAYTCGFGLNAALAGAASVKNVDLSRKVLGWGQQNYALSGLAAPDHDFLYGDVFEWLTRLQRRGDLFDLVILDPPGFARSKAGTWRAEKDYGRLMAQASAVTAPGGEVLALLNHAGVSAGGLTHMVEQGLSTAGRRGHLTETLGPGRDYPGATHLKVQRWSLNEGGSHHHHHH | soluble |
| MSLVDHVHFERELTLLKSDVSKMLFLVSESLNDAIESLETMNETLARKVLESDDMIDELNREIEEKAYQIIARYNPILKQLRYIITILKFSNDLERIGDLSCNIAEKCLFLSEEKIKFEMLKELKDMFGSTLKVVQDAFKAFVEEDVDLAFRLWKFDDVIDEMEKKIRRIVVERIREGNISAELALVYILIARDLERVGDHANNLCEEVIYIETGKNMKEFLRGVESGSEGADSEGGSHHHHHH | soluble |
| MSLVELQEIFDVSYGSKLDLNKMSSFNPTINFVGRSGKNNGVTASVDLLKNTKPYPAGLLTVALGGSVLSTFLQNKPFYTAQNVAVLNPKTEMTEQQKLFYCAAIFANAYRFSACGREANRTLRQLFVPSLDEIPSWVESVNLNPSAGVTEPKLKESLDLPVVRQSKRLDEIFTIQNGIAATKLKEFEQRQKDTVVYIRPASTQARTLRSYIARDSVDEKHIFPCHTLFTSTNGEGSHTYSYVSTCEFVANSDVAVLTPIQSDMPIEVKLYYAKCITANRYLFSYGRKPKGEKLKSIMLPYFDQQEDFDYICRFIHTLLFSNNLEGHHHHHH | soluble |
| MSLVENLFLEPQSKRRKINPETIESPSPNCNHWFVRNKICISCYTTVDNFEGRSFDYLYKGMQMSNEALGFTKGLISQTSWLEDKKLHLVLDLDQTLIHTIKTSLLYESEKYIIEEVESRKDIKRFNTGFPEESLIKLRPFVHQFLKECNEMFSMYVYTKGGYDYARLVLEMIDPDKFYFGNRVITRRESPGFKTLDLVLADERGIVIVDDTSSVWPHDKKNLLQIARYKYFGDKSCLFSEDKKKIDESDEKGPLNTALRFLKDVHEEFFYDWSKKDLDSVDVRPLLKEISLRWKRKADGVV | soluble |
| MSLVFVACGLNHKTAPIHVREKVALQPAMQDSLLSSLLDLPEVNEAAILSTCNRTEIYCDTNTPEVLGNWLAHEHQLSEELLSQFLYIHQGKEGIKHTLRVASGLDSMMIGEPQILGQMKQAYQHACRLGTVKTQLRPVFEYIFRASKRIRTRSGIGANPVSIAYAAVQLIGQLFKNYHSLSVFLIGSGETASLVAKYLHQHGVHRFLIASRTLENAQKLAETFGGKTLSIGDIPQYLPLADVVISATACPLPFINKSLVEHALEQRNHAPMFLLDLAVPRDIEGNVNELEQVHLYNVDDLQSMIEKGMDERRNAALQAEQLIESELDNYIRWHRSLRAKDVICDYRNQMHTLAQQELQRALKKISAGQNQQDVLNEFSMRLVNKLTHNPTIGLRQIAWDNREDLLDLARYLFDTTANQSLYEEISEGHHHHHH | not soluble |
| MSLVGYSAVSQPSPASFLLGPTLPPAPSIAFRLWRPYSMTARITSVEALPYRLPLTSKLAWGAHSALSAAEHVLVRVTLSDGSVGVAEATPRPTIYGETPGSVTAILQHLEPALLGLDIADEAALNRVRGSVAGNHTARGALDMALWEARAASRGQSLFDTLLGPHERVRVSFILGIAPPAEMLAEAERVVAAGVRCLKVKVGRHAAQDLQVIAELRRRYGDDVQLYADSNETLTLEQAPDVLAAMREAGLMYVEEPLPARDLRARAALHAAGVLPIVADDSCFTPADLERELDFDTFDVLNVKTARNGFTDGLQMLRRAAEHGKRGMVGSQASTGLGTLHAALLSTQAEVTEPCELSFVLKLGDDLLNRPIEFQDGWLNVPELREHRLDEDKLARYRIEGHHHHHH | not soluble |
| MSLVPARPNRPEADREALWKIVHDRCEFGYRRTGAYAPCTFVDEQSGTALYKADFDPYQFLLIPLARITGIEDPALRESAGRNYLYDAWAARFLVTARLNNSLPESDVVLTINPKNARTQDQLHIHISCSSPTTSAALRNVDTSEYVGWKQLPIDLGGRRFQGLAVDTKAFESRNLFRDIYLKVTADGKKMENASIAVANVAQDQFLLLLAEGTEDQPVAAETLQDHDCSITKSEGHHHHHH | soluble |
